One assay concerns mature oligodendrocytes. Briefly: Survival and MBP expression of mature oligodendrocyte cultures treated with Sp35-Fc. It is filed as cell-based, rat. The settings on record: 10 μg/ml for 5 days. The method, then: Mature oligodendrocytes have a half-life in vitro of about 48 to 72 hours, with cells typically undergoing apoptosis after 72 hours. […] MBP expression was monitored as a marker for mature ologodendrocytes.

The next assay has as its system RhoA-GTP. In words: RhoA-GTP levels in oligodendrocyte lysates by western blotting. It is filed as cell-based, rat. The following applies: FIG. 9A. An excerpt: A strong candidate signaling pathway that is implicated in the control of oligodendrocyte differentiation is the Rho family of GTPases. Rho GTPases regulate cellular morphology, and reduced RhoA-GTP amounts are required for oligodendrocyte differentiation. See Liang, X, et al., J. Neurosci. 24:7140-7149 (2004). To determine whether Sp35 signals through the RhoA pathway, RhoAGTP levels in cell lysates of oligodendrocytes treated with Sp35-Fc were compared with levels in the corresponding control via western blotting.
In general terms: Immunoblotting shows a protein as a band on a membrane.

Assay [1] has as its system co-cultures of dorsal root ganglion (DRG) neurons and oligodendrocytes. In words: In vitro myelination in co-cultures of DRG neurons and oligodendrocytes. It is filed as cell-based, rat. The method, then:
The role of Sp35 in myelination was examined in vitro by treating co-cultures of dorsal root ganglion (DRG) neurons and oligodendrocytes with Sp35-Fc and testing for myelination by immunohistochemistry and electron microscopy. For these studies, it was necessary to first generate primary cultures of DRG neurons and of oligodendrocytes.
Female Long Evans rat E14-E17 embryonic dorsal root ganglia were cultured as described by Plant et al., J. Neurosci. 22:6083-91 (2002). Dissected DRGs were plated on poly-L-lysine-coated cover slips (100 μg/ml) for 2 weeks in the presence of fluorodeoxyuridine for days 2-6 and days 8-11 in NLA medium containing 1× B27, 100 ng/ml NGF (Invitrogen).
A2B5^+ oligodendrocytes were prepared as described in Example 1, and were harvested by trypsinization.
For coculture studies, A2B5^+ oligodendrocytes were added to DRG neuron drop cultures in the presence or absence of 10 μg/ml Sp35-Fc. The culture medium (Neurobasal medium supplemented with B27 and 100 ng/ml NGF) was changed, and fresh Sp35-Fc was added to the cells every 3 d. To identify changes in myelination, 2-week-old cultures were stained by immunohistochemical staining (“IHC”) for neurofilaments with anti-βIII-tubulin antibody to identify axons, or anti-MBP antibody to identify oligodendrocytes., and 4-week-old cultures were subjected to SDS-PAGE followed by western blot analyses to quantify the MBP. In selected examples, cells were fixed for electron microscopy studies by adding 2.5% gluteraldehyde directly onto the cover slips. Myelinated axons in the 2-week-old cultures were quantified by counting the number of myelinated internode bundles that were derived from single MBP^+ oligodendrocytes. Samples were analyzed in duplicate. Error bars denote individual determinations. P values in all studies were determined using a one-way analysis of variance.
Several peptides containing portions of the Ig domain of Sp35 were examined in vitro, by treating co-cultures of dorsal root ganglion (DRG) neurons and oligodendrocytes with Sp35 Ig peptides and testing for myelination as described in Example 5.
For co-culture studies, A2B5^+ oligodendrocytes were added to DRG neuron drop cultures in the presence or absence of 10 μg/ml Sp35-Ig-Fc (Sp35 amino acids 417-493 fused to Fc). The culture medium (Neurobasal medium supplemented with B27 and 100 ng/ml NGF) was changed, and fresh Sp35-Ig-Fc was added to the cells every 3 d. To identify changes in myelination, 2-week-old cultures were stained by immunohistochemical staining (“IHC”) for neurofilaments with anti-βIII-tubulin antibody to identify axons, or anti-MBP antibody to identify oligodendrocytes and 4-week-old cultures were subjected to SDS-PAGE followed by western blot analyses to quantify the MBP.
We performed experiments to address the relative contributions to the myelination process of Sp35 in DRG neurons as compared to oligodendrocytes. We infected DRG neurons, oligodendrocytes and co-cultures (prepared as described in Example 5) with the FL-Sp35 and DN-Sp35 lentiviral vectors described in Example 1 and performed immunohistochemical straining for myelinated MBP cells after two weeks. A 2-fold increase in MBP levels in co-cultures where both cells express DN-Sp35 and a 2-fold decrease in MBP levels in co-cultures where both cells express FL-Sp35 was observed (FIG. 10G).

Another assay deals with cuprizone-treated mice. In words: Cuprizone demyelination model, stereotactic injection into corpus callosum. The settings on record: injected into corpus callosum at 2, 2.5 and 3 weeks of cuprizone feeding. It is filed as in vivo. An excerpt:
Adult wild-type C57Bl/6 male mice were fed cuprizone (0.2% milled with ground mouse chow by weight) for 6 weeks to induce demyelination within the corpus callosum. Sp35-Fc was stereotactically injected into the demyelinating corpus callosum at 2, 2.5, and 3 weeks of cuprizone feeding. Control mice were stereotactically injected at the same intervals with sterilized media containing no Sp35-Fc. After 6 weeks of cuprizone feeding, the mice were returned to a normal diet for 2, 4 and 6 weeks (ground mouse chow only) to allow remyelination.
The cuprizone-treated mice were anesthetized with ketamine (80 mg/kg body weight) and xylazine (10 mg/kg body weight) and positioned in an immobilization apparatus designed for stereotactic surgery (David Kopf Instruments). The scalp was opened and the sterile compounds injected (1 μM in […] of HBSS) unilaterally into the acutely demyelinated corpus callosum of the wild-type recipient mice with a […] Hamilton syringe using stereotactic coordinates of 0.7 mm posterior and 0.3 mm lateral to bregma at a depth of 1.7 mm (Messier et al., Pharmacol. Biochem. Behav. 63(2): 313-18 (1999)). Additionally, control recipient mice were stereotactically injected with HBSS containing no compounds. The opening in the skull was filled with Gelfoam, and the area was swabbed with penicillin and streptomycin (Gibco) and the wound was sutured. […]

The test system of the next assay is Caspase-3. In words: Caspase-3 activation in differentiated PC12 cells after NGF withdrawal (Caspase 3/7 Glo). It is filed as cell-based. The method, then: (§1) PC12 cells (Neuroscreen) were differentiated in RPMI-1640 medium supplemented with 5% fetal bovine serum, 10% horse serum, 2 mM glutamine, 100 U/ml penicillin and […] streptomycin containing 200 ng/ml NGF for 7 days. For experiments, the culture media was replaced with NGF-free culture media containing Sp35-Fc, human IgG as a negative control (0.1-10 μM), or zVAD as a positive control (0.1 μM). 18 hours after NGF withdrawal, activated Caspase-3 was quantified using the Caspase 3/7 Glo kit (Promega) according to the manufacturer's instructions. 42 hours after NGF withdrawal, apoptotic cell death was quantified using a cell death detection ELISA kit (Roche) according to the manufacturer's instructions.

Assay [2] concerns differentiated PC12 cells. In words: Apoptotic cell death in differentiated PC12 cells after NGF withdrawal (cell death ELISA / TUNEL). It is filed as cell-based. Here is the method: as §1
A general note: ELISA stands for enzyme-linked immunosorbent assay.

B1: Sp35-Fc: extra-cellular portion of human Sp35 (residues 1-532) fused to the hinge and Fc region of human IgG1 (protein)
chain: TGCPPRCECSAQDRAVLCHRKRFVAVPEGIPTETRLLDLGKNRIKTLNQDEFASFPHLEELELNENIVSAVEPGAFNNLFNLRTLGLRSNRLKLIPLGVFTGLSNLTKLDISENKIVILLDYMFQDLYNLKSLEVGDNDLVYISHRAFSGLNSLEQLTLEKCNLTSIPTEALSHLHGLIVLRLRHLNINAIRDYSFKRLYRLKVLEISHWPYLDTMTPNCLYGLNLTSLSITHCNLTAVPYLAVRHLVYLRFLNLSYNPISTIEGSMLHELLRLQEIQLVGGQLAVVEPYAFRGLNYLRVLNVSGNQLTTLEESVFHSVGNLETLILDSNPLACDCRLLWVFRRRWRLNFNRQQPTCATPEFVQGKEFKDFPDVLLPNYFTCRRARIRDRKAQQVFVDEGHTVQFVCRADGDPPPAILWLSPRKHLVSAKSNGRLTVFPDGTLEVRYAQVQDNGTYLCIAANAGGNDSMPAHLHVRSYSPDWPHQPNKTFAFISNQPGE
modifications: left off: a dimerising Fc or GST
notes: extra-cellular portion of human Sp35 (residues 1-532) fused to the hinge and Fc region of human IgG1
On to B1, for which the “increase in MBP protein expression (cell staining and Western blot)” value in the assay with mature oligodendrocytes (compared to control-Fc treated cells) is “approximately 3 fold”. Moreover, the “survival rate for mature oligodendrocytes (cell viability staining)” value with mature oligodendrocytes (versus control-Fc) is “significantly increased survival rate”. In addition, the “RhoA-GTP amount versus control” value in the assay on RhoA-GTP was “threefold reduction”. In assay [1] (4-week-old treated cocultures, 10 μg/ml for Fc fusions), the “expression of MBP by western blot” value is recorded as “increased”. In addition, the “confocal microscopy of myelination” value in assay [1] (Sp35-Fc treated cocultures) is “MBP had encapsulated the axons”. Also, in assay [1] (cocultures treated 4 weeks, FIG. 10C), the “electron microscopy of myelination” value is given as “Multiple wellformed internodes”. Also, in assay [1] (exogenously added), the “effect on myelination when both cell types overexpress DN-Sp35” value was “slight effects” and the “effect on myelination when either cell type overexpresses DN-Sp35 alone” value was “further enhanced myelination”. In addition, the “effect on myelination in cocultures overexpressing FL-Sp35” value in assay [1] (exogenously added, FL-Sp35 in either or both cell types) is reported as “reversed the inhibition of myelination”. Also, in assay [1] (treatment for 2 weeks, IHC, FIG. 10A), the “axonal myelination (MBP+ myelinated axons)” value is listed as “robust axonal myelination”. In addition, in the assay with cuprizone-treated mice, the “axon myelination by IHC (anti-MBP antibody or luxol fast blue)” value is reported as “increased”. In the assay with cuprizone-treated mice (FIG. 12), the “mature oligodendrocyte survival (CC1 antibody staining)” value is recorded as “increased mature oligodendrocyte survival”. For the same molecule, in the assay with Caspase-3 (0.1 μM, 18 hours after removal of NGF), the Caspase-3 activation result was “reduced Caspase-3 activation”. In addition, in the assay with Caspase-3 (0.1-10 μM, 18 hours after NGF withdrawal), the “dose dependence of effect on Caspase-3 activation” value is recorded as “dose-dependent”. The “effect on Caspase-3 activation compared with zVAD (0.1 μM)” value in the assay on Caspase-3 (1 or 10 μM, FIG. 14) is listed as “as effective as a neuroprotective dose of the caspase inhibitor zVAD”. Also, the “cells undergoing apoptosis (TUNEL assay)” value in assay [2] (18 hours after NGF withdrawal, FIG. 13 legend) is on record as “fewer cells undergoing apoptosis”. Moreover, the “cell death (TUNEL ELISA)” value in assay [2] (42 hours after withdrawal of NGF, FIG. 13) is listed as “significantly reduced cell death”.

The record behind these values is patent US8486893B2, “Treatment of conditions involving demyelination” (Biogen Idec MA Inc., priority 2004, dated 2013).
